Assay results: patent publication US20260167699A1 (Chugai, published 2026)

B1: GpH7-A5/GpH7-B3 variant A330_12R/GpL16-k0 (antibody, human IgG1, kappa)
heavy 1: not shown
heavy 2: not shown
light: DIVMTQSPLSLPVTPGEPASISCQASESLVHSNRNTYLHWYLQKPGQSPQLLIYKVSNRFSGVPDRFSGSGSGTDFTLKISRVEAEDVGVYYCSQNTHVPPTFGQGTKVEIERTVAAPSVFIFPPSDEQLKSGTASVVCLLNNFYPREAKVQWKVDNALQSGNSQESVTEQDSKDSTYSLSSTLTLSKADYEKHKVYACEVTHQGLSSPVTKSFNRGEC
notes: copies: 1 + 1 + 2
B2: GpH7-A5/GpH7-B3 variant E269_08L/GpL16-k0 (antibody, human IgG1, kappa)
heavy 1: not shown
heavy 2: not shown
light: B1 light
notes: copies: 1 + 1 + 2
B3: GpH7-A5/GpH7-B3 variant E333_11K/GpL16-k0 (antibody, human IgG1, kappa)
heavy 1: not shown
heavy 2: not shown
light: B1 light
notes: copies: 1 + 1 + 2
B4: GpH7-A5/GpH7-B3 variant E269_18N/GpL16-k0 (antibody, human IgG1, kappa)
heavy 1: not shown
heavy 2: not shown
light: B1 light
notes: copies: 1 + 1 + 2
B5: GpH7-A5/GpH7-B3 variant D270_06M/GpL16-k0 (antibody, human IgG1, kappa)
heavy 1: not shown
heavy 2: not shown
light: B1 light
notes: copies: 1 + 1 + 2
B6: GpH7-A5/GpH7-B3 variant D270_02A/GpL16-k0 (antibody, human IgG1, kappa)
heavy 1: not shown
heavy 2: not shown
light: B1 light
notes: copies: 1 + 1 + 2
B7: GpH7-A5/GpH7-B3 variant A327_09D/GpL16-k0 (antibody, human IgG1, kappa)
heavy 1: not shown
heavy 2: not shown
light: B1 light
notes: copies: 1 + 1 + 2
B8: GpH7-A5/GpH7-B3 variant A330_19Q/GpL16-k0 (antibody, human IgG1, kappa)
heavy 1: not shown
heavy 2: not shown
light: B1 light
notes: copies: 1 + 1 + 2
B9: GpH7-A5/GpH7-B3 variant E333_01G/GpL16-k0 (antibody, human IgG1, kappa)
heavy 1: not shown
heavy 2: not shown
light: B1 light
notes: copies: 1 + 1 + 2
B10: GpH7-A5/GpH7-B3 variant D270_19Q/GpL16-k0 (antibody, human IgG1, kappa)
heavy 1: not shown
heavy 2: not shown
light: B1 light
notes: copies: 1 + 1 + 2
B11: GpH7-A5/GpH7-B3 variant E333_05P/GpL16-k0 (antibody, human IgG1, kappa)
heavy 1: not shown
heavy 2: not shown
light: B1 light
notes: copies: 1 + 1 + 2
B12: GpH7-A5/GpH7-B3 variant E269_14T/GpL16-k0 (antibody, human IgG1, kappa)
heavy 1: not shown
heavy 2: not shown
light: B1 light
notes: copies: 1 + 1 + 2
B13: GpH7-A5/GpH7-B3 variant A327_18N/GpL16-k0 (antibody, human IgG1, kappa)
heavy 1: not shown
heavy 2: not shown
light: B1 light
notes: copies: 1 + 1 + 2
B14: GpH7-A5/GpH7-B3 variant A330_01G/GpL16-k0 (antibody, human IgG1, kappa)
heavy 1: not shown
heavy 2: not shown
light: B1 light
notes: copies: 1 + 1 + 2
B15: GpH7-A5/GpH7-B3 variant E333_04F/GpL16-k0 (antibody, human IgG1, kappa)
heavy 1: not shown
heavy 2: not shown
light: B1 light
notes: copies: 1 + 1 + 2
B16: GpH7-A5/GpH7-B3 variant D270_13S/GpL16-k0 (antibody, human IgG1, kappa)
heavy 1: not shown
heavy 2: not shown
light: B1 light
notes: copies: 1 + 1 + 2
B17: GpH7-A5/GpH7-B3 variant E269_09D/GpL16-k0 (antibody, human IgG1, kappa)
heavy 1: not shown
heavy 2: not shown
light: B1 light
notes: copies: 1 + 1 + 2
B18: GpH7-A5/GpH7-B3 variant E269_03V/GpL16-k0 (antibody, human IgG1, kappa)
heavy 1: not shown
heavy 2: not shown
light: B1 light
notes: copies: 1 + 1 + 2
B19: GpH7-A5/GpH7-B3 variant A330_06M/GpL16-k0 (antibody, human IgG1, kappa)
heavy 1: not shown
heavy 2: not shown
light: B1 light
notes: copies: 1 + 1 + 2
B20: GpH7-A5/GpH7-B3 variant E269_13S/GpL16-k0 (antibody, human IgG1, kappa)
heavy 1: not shown
heavy 2: not shown
light: B1 light
notes: copies: 1 + 1 + 2
B21: GpH7-A5/GpH7-B3 variant A330_18N/GpL16-k0 (antibody, human IgG1, kappa)
heavy 1: not shown
heavy 2: not shown
light: B1 light
notes: copies: 1 + 1 + 2
B22: GpH7-A5/GpH7-B3 variant E333_07I/GpL16-k0 (antibody, human IgG1, kappa)
heavy 1: not shown
heavy 2: not shown
light: B1 light
notes: copies: 1 + 1 + 2
B23: GpH7-A5/GpH7-B3 variant A330_15Y/GpL16-k0 (antibody, human IgG1, kappa)
heavy 1: not shown
heavy 2: not shown
light: B1 light
notes: copies: 1 + 1 + 2
B24: GpH7-A5/GpH7-B3 variant A330_14T/GpL16-k0 (antibody, human IgG1, kappa)
heavy 1: not shown
heavy 2: not shown
light: B1 light
notes: copies: 1 + 1 + 2
B25: GpH7-A5/GpH7-B3 variant A330_03V/GpL16-k0 (antibody, human IgG1, kappa)
heavy 1: not shown
heavy 2: not shown
light: B1 light
notes: copies: 1 + 1 + 2
B26: GpH7-A5/GpH7-B3 variant A327_19Q/GpL16-k0 (antibody, human IgG1, kappa)
heavy 1: not shown
heavy 2: not shown
light: B1 light
notes: copies: 1 + 1 + 2
B27: GpH7-A5/GpH7-B3 variant A327_05P/GpL16-k0 (antibody, human IgG1, kappa)
heavy 1: not shown
heavy 2: not shown
light: B1 light
notes: copies: 1 + 1 + 2
B28: GpH7-A5/GpH7-B3 variant E269_01G/GpL16-k0 (antibody, human IgG1, kappa)
heavy 1: not shown
heavy 2: not shown
light: B1 light
notes: copies: 1 + 1 + 2
B29: GpH7-A5/GpH7-B3 variant A330_08L/GpL16-k0 (antibody, human IgG1, kappa)
heavy 1: not shown
heavy 2: not shown
light: B1 light
notes: copies: 1 + 1 + 2
B30: GpH7-A5/GpH7-B3 variant A327_13S/GpL16-k0 (antibody, human IgG1, kappa)
heavy 1: not shown
heavy 2: not shown
light: B1 light
notes: copies: 1 + 1 + 2
B31: GpH7-A5/GpH7-B3 variant E269_02A/GpL16-k0 (antibody, human IgG1, kappa)
heavy 1: not shown
heavy 2: not shown
light: B1 light
notes: copies: 1 + 1 + 2

These binders were tested against T1, FcγRIIIa (human, UniProt P08637 17-208) (assay: SPR (Biacore);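 note: antibody variants captured on an SPR sensor chip, with FcγRIIIa passed over as analyte in HBS-EP+ buffer at 25 °C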).
T1 construct: extracellular domain; also called 3a; FcγRIIIa extracellular domain
T1 sequence (P08637 other isoform, or with tags, fused parts or gaps): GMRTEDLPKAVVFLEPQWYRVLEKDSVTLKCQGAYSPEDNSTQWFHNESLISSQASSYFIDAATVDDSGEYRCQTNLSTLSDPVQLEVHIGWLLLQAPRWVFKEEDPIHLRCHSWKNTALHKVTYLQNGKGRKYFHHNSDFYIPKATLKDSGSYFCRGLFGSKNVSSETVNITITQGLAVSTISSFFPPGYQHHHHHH

He/Con 3a | Binder
77.3 % of GpH7-A5/GpH7-B3/GpL16-k0 | B1
51.5 % of GpH7-A5/GpH7-B3/GpL16-k0 | B2
97.7 % of GpH7-A5/GpH7-B3/GpL16-k0 | B3
57.2 % of GpH7-A5/GpH7-B3/GpL16-k0 | B4
60 % of GpH7-A5/GpH7-B3/GpL16-k0 | B5
50.5 % of GpH7-A5/GpH7-B3/GpL16-k0 | B6
86 % of GpH7-A5/GpH7-B3/GpL16-k0 | B7
86.3 % of GpH7-A5/GpH7-B3/GpL16-k0 | B8
101 % of GpH7-A5/GpH7-B3/GpL16-k0 | B9
74.2 % of GpH7-A5/GpH7-B3/GpL16-k0 | B10
100 % of GpH7-A5/GpH7-B3/GpL16-k0 | B11
59.7 % of GpH7-A5/GpH7-B3/GpL16-k0 | B12
62.8 % of GpH7-A5/GpH7-B3/GpL16-k0 | B13
87.3 % of GpH7-A5/GpH7-B3/GpL16-k0 | B14
104 % of GpH7-A5/GpH7-B3/GpL16-k0 | B15
51.4 % of GpH7-A5/GpH7-B3/GpL16-k0 | B16

He/Con 3a | Binder
106 % of GpH7-A5/GpH7-B3/GpL16-k0 | B17
56 % of GpH7-A5/GpH7-B3/GpL16-k0 | B18
139 % of GpH7-A5/GpH7-B3/GpL16-k0 | B19
62.1 % of GpH7-A5/GpH7-B3/GpL16-k0 | B20
67.3 % of GpH7-A5/GpH7-B3/GpL16-k0 | B21
100 % of GpH7-A5/GpH7-B3/GpL16-k0 | B22
122 % of GpH7-A5/GpH7-B3/GpL16-k0 | B23
85.8 % of GpH7-A5/GpH7-B3/GpL16-k0 | B24
98.8 % of GpH7-A5/GpH7-B3/GpL16-k0 | B25
54 % of GpH7-A5/GpH7-B3/GpL16-k0 | B26
61.9 % of GpH7-A5/GpH7-B3/GpL16-k0 | B27
61.6 % of GpH7-A5/GpH7-B3/GpL16-k0 | B28
122 % of GpH7-A5/GpH7-B3/GpL16-k0 | B29
66.7 % of GpH7-A5/GpH7-B3/GpL16-k0 | B30
68 % of GpH7-A5/GpH7-B3/GpL16-k0 | B31
